# Positions count from the first letter of the chain named.
# T1: mouse CLDN18.2 (mouse, UniProt P56857 10-264)
# T1 construct: over-expressed on HEK293T cells by lentivirus; also called mCLDN18.2; murine CLDN18.2
# T1 chain: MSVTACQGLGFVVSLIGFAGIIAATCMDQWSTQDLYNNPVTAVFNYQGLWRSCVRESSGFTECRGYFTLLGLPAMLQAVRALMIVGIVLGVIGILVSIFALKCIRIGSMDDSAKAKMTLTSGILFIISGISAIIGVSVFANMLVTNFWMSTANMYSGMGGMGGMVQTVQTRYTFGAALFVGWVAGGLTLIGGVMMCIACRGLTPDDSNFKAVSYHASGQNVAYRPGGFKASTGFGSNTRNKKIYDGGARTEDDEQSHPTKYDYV
# B1: 5F9 (antibody, V domains shown)
# VH: QVQLQQSGAELVKPGASVKLSCKASGYTFTSYWMHWVKQRPGQGLEWIGMIHPNSVSTNYNEKFKSKATLTVDKSSSTAYMQLSSLTSEDSAVYYCAVYFDYWGQGTTLTVSS
# VL: DIQVTQSPSSLSASLGERVSLTCRASQDIGSSLNWLQQEPDGTIKRLIYASSSLNSGVPKRFSVSRSGSDYSLTISSLESEDFVDYYCLQYATSPPTFGGGTKLEIK
# notes: murine monoclonal antibody purified from hybridoma culture supernatant
# B2: 44F7 (antibody, V domains shown)
# VH: QVQLQQSGAELVRPGASVKMSCKASGYTFTSYNMHWVKQAPRQGLEWIGTIYPGNGDTSYNQKFKGKATLTVDKSSSTAYMQLSSLTSEDSAVYFCARGGYYGNSLDYWGQGTTLTVSS
# VL: DIQMTQSPSSLTVTAGEKVTMSCKSSQSLLNSGNQKNYLTWYQQKPGQPPKLLIYWASTRESGVPDRFTGSGSGTDFTLTISSVQAEDLAVYYCQNAYYYPFTFGSGTKLEIK
# notes: as for B1
# B3: 2F12 (antibody, V domains shown)
# VH: EVQLVESGGGLVKPGGSLKLSCAASGFTFSDYGIHWVRQAPEKGLEWVAYISSGSSTIYYADTVKGRFTISRDNAKNTLFLQMTSLRSEDTAIYYCAKWDRGNCFDYWGQGTTLTVSS
# VL: DIVLTQSPSSLTVTAGEKVTMSCKSSQSLLNSGNQKKYLTWYQQKVGQPPKLLIYWASIRECGVPDRFTGSGSGTDFILTISSVQAEDLAVYYCQNAYSYPLTFGAGTKLELK
# notes: as for B1
# B4: 175D10 (antibody, human IgG1, kappa, V domains shown)
# VH: QVQLQQPGAELVRPGASVKLSCKASGYTFTSYWINWVKQRPGQGLEWIGNIYPSDSYTNYNQKFKDKATLTVDKSSSTAYMQLSSPTSEDSAVYYCTRSWRGNSFDYWGQGTTLTVSS
# VL: DIVMTQSPSSLTVTAGEKVTMSCKSSQSLLNSGNQKNYLTWYQQKPGQPPKLLIYWASTRESGVPDRFTGSGSGTDFTLTISSVQAEDLAVYYCQNDYSYPFTFGSGTKLEIKR
# B5: 44F7-chIgG1 (antibody, V domains shown)
# VH: B2 VH
# VL: B4 VL with V3Q, D97A, S99Y
# notes: human-mouse chimeric antibody, human IgG1/kappa constant regions; also called parental chimeric antibody
# B6: 7004-09hu09 (antibody, human IgG1, kappa, V domains shown)
# VH: QVQLVQSGAEVKKPGASVKVSCKASGYTFTSYNMHWVRQAPGQGLEWMGTIYPGNGDTSYNQKFQGRVTMTRDKSTSTVYMELSSLRSEDTAVYFCARGGYYGNSLDYWGQGTLVTVSA
# VL: DIVMTQSPDSLAVSLGERATINCKSSQSLLNSGNQKNYLAWYQQKPGQPPKLLIYWASTRESGVPDRFSGSGSGTDFTLTISSLQAEDVAVYYCQNAYYYPFTFGQGTKLEIKR
# notes: humanized antibody of murine 44F7, human IgG1/kappa constant regions
# B7: 7004-09hu10 (antibody, human IgG1, kappa, V domains shown)
# VH: B6 VH with N33Y
# VL: B6 VL with A40T
# notes: as for B6
# B8: 7004-09hu15 (antibody, human IgG1, kappa, V domains shown)
# VH: B6 VH with N33Y
# VL: B6 VL with L29V
# notes: as for B6
# B9: 44A8-chIgG1 (antibody, V domains shown)
# VH: EVRLQQSGPELVKPGASVKMSCKASGYTFTDYNMHWVKQSHGKSLEWIGYINPKNGGIRYNQKFTGKATLTVNKSSSTAYMELRSLTSEDSAVYYCARGGYYGNTLDNWGQGTSVTVSS
# VL: B4 VL with V13L, R60S, V91I, D97A, S99F, F102W, S106G
# notes: human-mouse chimeric antibody, human IgG1/kappa constant regions
# B10: 27B5-chIgG1 (antibody, V domains shown)
# VH: QVQLQQPGTELVKPGASVKLSCKASGYTFTSYWMHWVKQRPGQGLEWIGNIHPSNGGSNHNEKFKSKATLTVDKSSSTAYMQLSSLTSEDSAVYYCAPIYYGNSLAYWGHGTLVTVSA
# VL: B4 VL with I2V, I54L, D97S, S99F
# notes: as for B9
# B11: 37B1-chIgG1 (antibody, V domains shown)
# VH: EVRLQQSGPELVKPGASVKMSCKASGYSFTDYNMHWVKQSHGKSPEWVGYINPNKGGTGYNQKFKGKATLTVNKSSSTANMELRSLTSEDSAVYYCARIWYGNSFAYWGQGTLVTVSA
# VL: B4 VL with I2V, Y93F, S99F
# notes: as for B9
# B12: 5F9-chIgG1 (antibody, V domains shown)
# VH: B1 VH
# VL: DIQVTQSPSSLSASLGERVSLTCRASQDIGSSLNWLQQEPDGTIKRLIYASSSLNSGVPKRFSVSRSGSDYSLTISSLESEDFVDYYCLQYATSPPTFGGGTKLEIKR
# notes: as for B9
# B13: 1D10-chIgG1 (antibody, V domains shown)
# VH: B1 VH with S7P, H52Y, V56G, T58I, S66N, Y95F, A97S
# VL: B12 VL with V4G, S51T, N55D, T93S
# Target: T2, human CLDN18.1 (human, UniProt P56856 1-261)
# T2 construct: over-expressed on HEK293T or CHOS cells by lentivirus; also called hCLDN18.1
# Assay: imaging cytometry (% fluorescent cells), HEK293-hCLDN18.1 cells
# Source text: (§1) HEK293T-hCLDN18.2 and OCUM-1-hCLDN18.2 expressing human CLDN18.2 (hCLDN18.2), or HEK293T-mCLDN18.2 expressing mouse CLDN18.2 (mCLDN18.2) and the corresponding negative control cell line HEK293T were used; or HEK293T-hCLDN18.1 and CHOS-hCLDN18.1 expressing human CLDN18.1 (hCLDN18.1) were used. DyLight488 goat anti-mouse IgG (Abcam, Catalog No. ab97015) or DyLight488 goat anti-human IgG (Abcam, Catalog No. ab97003) was used as secondary antibody. Binding curves were generated by using the following method.
# 10,000 cells were plated in 100 μL of DMEM containing 10% FBS per well in a flat-bottomed 96-well plate. After the cells adhered or were settled to the bottom of the wells overnight, the supernatant was removed on the next day. […] 100 μL of PBS was added to each well, and then reading was carried out on the cytometer.
# A full-field scanning cytometer (Nexcelom, Celigo® Image Cytometer) was used to measure the readings of the experimental plate. […] The cells that bound the antibody were counted in the image obtained from the green fluorescent channel under the parameters set in accordance with the morphology and fluorescence intensity of the fluorescently labeled cells, and the adhered cells were counted in the image obtained from the bright field channel under the parameters set in accordance with the morphology of the cells.
# T2 sequence (P56856 whole entry): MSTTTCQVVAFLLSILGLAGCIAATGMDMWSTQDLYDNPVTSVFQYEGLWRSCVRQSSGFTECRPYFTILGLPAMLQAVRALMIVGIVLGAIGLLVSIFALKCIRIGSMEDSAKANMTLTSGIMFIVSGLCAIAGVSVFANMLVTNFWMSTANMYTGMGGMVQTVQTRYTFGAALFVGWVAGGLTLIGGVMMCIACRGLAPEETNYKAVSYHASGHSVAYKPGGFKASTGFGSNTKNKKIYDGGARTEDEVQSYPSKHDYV
row,Binder,EC50
1,B1,0.714 µg/mL

# Target: T2, human CLDN18.1
# Assay: imaging cytometry, CHOS-hCLDN18.1 cells
# Source text: as §1
# (§2) 10,000 cells were plated in 100 μL of DMEM containing 10% FBS per well in a flat-bottomed 96-well plate. After the cells adhered or were settled to the bottom of the wells overnight, the supernatant was removed on the next day. 3-Fold gradient dilution of antibody was performed by diluting 1/3 of the total volume (i.e., 100 μL) in 200 μL of DMEM. 100 μL of the diluted antibody (the supernatants of fused clones or subclones was used in the screening) was added to each well of the cell plate, 100 μL of DMEM was added to the corresponding negative control well, and incubation was carried out for 1 hour at room temperature. After removing the supernatant, 100 μL of secondary antibody (5 μg/mL, diluted in DMEM) was added to each well, and incubated at room temperature for 0.5 hours. The supernatant was removed after staining, followed by washing with PBS once. 100 μL of PBS was added to each well, and then reading was carried out on the cytometer.
# (§3) A full-field scanning cytometer (Nexcelom, Celigo® Image Cytometer) was used to measure the readings of the experimental plate. During the measurement, high-speed scanning imaging of the cells in the well was simultaneously performed in the green fluorescent channel corresponding to the secondary antibody and in the bright field channel. The cells that bound the antibody were counted in the image obtained from the green fluorescent channel under the parameters set in accordance with the morphology and fluorescence intensity of the fluorescently labeled cells, and the adhered cells were counted in the image obtained from the bright field channel under the parameters set in accordance with the morphology of the cells.
row,Binder,binding result
1,B2,no binding
2,B3,no binding

# Target: T3, human CLDN18.2 (human)
# T3 construct: over-expressed on HEK293T or OCUM-1 cells by lentivirus; KATO-III and NUGC4 gastric cancer cells express it naturally; also called hCLDN18.2; hCLDNA18.2
# Assay: imaging cytometry (% fluorescent cells), OCUM1-hCLDN18.2 cells
# Source text: as §1, §2, §3
row,Binder,EC50
1,B4,6.54 µg/mL
2,B2,0.092 µg/mL
3,B3,0.186 µg/mL
4,B1,0.068 µg/mL

# Target: T3, human CLDN18.2
# Assay: imaging cytometry (% fluorescent cells), HEK293T-hCLDN18.2 cells
# Experimental: as §2
# as §3, with “cells. […] The data analysis was performed using GraphPad.” for “cells.”
row,Binder,EC50
1,B5,0.012 µg/mL
2,B4,0.035 µg/mL
3,B6,0.051 µg/mL
4,B7,0.047 µg/mL
5,B8,0.008 µg/mL

# Target: T1, mouse CLDN18.2
# Assay: imaging cytometry (% fluorescent cells), HEK293-mCLDN18.2 cells
# Source text: as §1, §2, §3
row,Binder,EC50
1,B4,0.81 µg/mL
2,B2,0.026 µg/mL
3,B3,0.036 µg/mL
4,B1,0.179 µg/mL

# Target: T3, human CLDN18.2
# Assay: cell-based or functional assay
Binder,"CDC EC50, HEK293T-hCLDN18.2 target cells, human serum","CDC EC50, KATO-III target cells, human serum"
B5,0.6 µg/mL,0.18 µg/mL
B9,2.4 µg/mL,–
B10,5.17 µg/mL,–
B4,18.2 µg/mL,–
B11,1.93 µg/mL,–
B12,5.25 µg/mL,–

# Target: T3, human CLDN18.2
# Assay: cell-based or functional assay
# Remark: another data set of the same source
row,Binder,"ADCC EC50, KATO-III target cells, human PBMC effectors"
1,B5,0.0117 µg/mL
2,B4,0.788 µg/mL
3,B6,0.0028 µg/mL
4,B7,0.0033 µg/mL
5,B8,0.0061 µg/mL

# Target: T3, human CLDN18.2
# Assay: cell-based or functional assay
# Remark: another data set of the same source
row,Binder,"Internalization percentage (%), HEK293T-hCLDN18.2 cells, flow cytometry, 10 µg/mL antibody"
1,B5,-1.5%
2,B9,2.5%
3,B10,-2.2%
4,B11,-3.2%
5,B12,9.3%
6,B13,28.7%

# Target: T3, human CLDN18.2
# Assay: cell-based or functional assay
# Remark: another data set of the same source
Binder,"ADCC EC50, HEK293T-hCLDN18.2 target cells, human PBMC effectors","ADCC EC50, KATO-III target cells, human PBMC effectors","ADCC EC50, NUGC4 target cells, human PBMC effectors"
B5,0.0078 µg/mL,0.099 µg/mL,0.047 µg/mL
B9,0.0156 µg/mL,–,–
B10,0.0249 µg/mL,–,–
B4,0.058 µg/mL,2.4 µg/mL,–
B11,0.0126 µg/mL,–,–
B12,0.0197 µg/mL,–,–

# Target: T3, human CLDN18.2
# Assay: cell-based or functional assay
# Remark: another data set of the same source
row,Binder,"CDC EC50, KATO-III target cells, human serum"
1,B5,0.52 µg/mL
2,B4,34.8 µg/mL
3,B6,0.33 µg/mL
4,B7,0.27 µg/mL
5,B8,0.27 µg/mL

# Target: T3, human CLDN18.2
# Assay: imaging cytometry (% fluorescent cells), HEK293-hCLDN18.2 cells
# Source text: as §1, §2, §3
row,Binder,EC50
1,B2,0.028 µg/mL
2,B3,0.041 µg/mL
3,B1,0.091 µg/mL

# Target: T3, human CLDN18.2
# Assay: imaging cytometry (% fluorescent cells), HEK293T-hCLDN18.2 cells
# Remark: another data set of the same source
# Experimental: as §2
# as §3, with “cells. […] The data analysis was performed using GraphPad.” for “cells.”
row,Binder,EC50
1,B5,0.027 µg/mL
2,B9,0.069 µg/mL
3,B10,0.108 µg/mL
4,B4,0.536 µg/mL
5,B11,0.031 µg/mL
6,B12,0.283 µg/mL

# Source: patent US20210403552A1 (SHANGHAI GENBASE BIOTECHNOLOGY, published 2021)
